# Experimental data reported in article PMC5231390, “Two-Component Signaling System VgrRS Directly Senses Extracytoplasmic and Intracellular Iron to Control Bacterial Adaptation under Iron Depleted Stress” (PLoS Pathogens, 2016).
# B1: PtdvA 50 bp, 5'-FAM (MST) (dsDNA)
# DNA 1: GCCCGATTTCACGTCTTTCTTCTTTTTCATTAACGGGACTTTAATTCCTG
# DNA 2: CAGGAATTAAAGTCCCGTTAATGAAAAAGAAGAAAGACGTGAAATCGGGC
# Assays:
# [1] = target: T1, VgrS (full-length, inverted membrane vesicles) (Xanthomonas campestris, UniProt Q8P666); conditions: 100 μM ATP with 10 μCi [γ-32P]ATP, 5 mM MgCl2, pH 7.8, 28°C, labelled compound
# T1 construct: gene colS
# [2] = target: phosphorylated VgrR (phosphorylated by acetyl phosphate) (Xanthomonas campestris pv. campestris); assay: MST
# [3] = target: VgrR (Xanthomonas campestris pv. campestris); assay: MST
# VgrR = target: T2, VgrR (Xanthomonas campestris, UniProt Q7CLQ6); assay: phosphorylation of VgrR seen as raised VgrS affinity in MST; format: biochemical; conditions: phosphodonor; indirect read-out (VgrR-VgrS binding)
# T2 construct: gene colR; full-length, C-terminal His6, pET30a in E. coli BL21(DE3), Ni-NTA purified
# [4] = target: VgrR (ColR), unphosphorylated (Xanthomonas campestris pv. campestris, UniProt B0RPP4 1-225); assay: MST; 10 mM MgCl2; EMSA: 10 mM Tris-HCl pH 7.5, 50 mM KCl, 1 mM DTT, poly(dI-dC), room temp; MST: 50 mM Tris-HCl pH 7.4, 150 mM NaCl, 10 mM MgCl2, 0.05% Tween-20; conditions: protein: recombinant; tags: C-terminal His6 (pET30a); chain copies: 2; label: 5'-FAM on one strand
molecule,measurement,setting,value
Nc1ncnc2c1ncn2[C@@H]1O[C@H](COP(=O)(O)OP(=O)(O)OP(=O)(O)O)[C@@H](O)[C@H]1O [ATP],"in vitro autophosphorylation, SDS-PAGE autoradiography",[1],VgrS has an autokinase activity by phosphorylating itself in the presence of ATP
"VgrS, membrane-embedded, full-length (receptor)",Kd,[2],260 nM
same,Kd,[3],4300 nM
CC(=O)OP(=O)(O)O [acetyl phosphate],phosphorylation of VgrR seen as raised VgrS affinity in MST,VgrR,Phosphorylation of VgrR by acetyl phosphate significantly increased the VgrR-VgrS binding affinity
B1,Kd,[4],189 ± 6.22 nM
